Test [1] concerns the target SARS-CoV-1 soluble spike ectodomain, stabilised (2P, GSAS linker, T4 fibritin trimerization motif) (SARS-CoV-1 | bacteriophage T4) (UniProt P59594). Put plainly: SEC.
Test [2] addresses Rf1 soluble spike ectodomain, stabilised (2P, GSAS linker, T4 fibritin trimerization motif) (bat sarbecovirus Rf1 | bacteriophage T4) (UniProt Q0QDZ0). Description: SEC. On the technique in general: In gel filtration, larger molecules generally elute earlier.

As a reminder, the stoichiometry N is a count of units in the complex or per binding partner. “SARS-CoV-1 soluble spike ectodomain, stabilised (2P, GSAS linker, T4 fibritin trimerization motif) (from UniProt P59594 14-1190) (domain or fragment)” returned a stoichiometry N in test [1] of 3. In turn, “Rf1 soluble spike ectodomain, stabilised (2P, GSAS linker, T4 fibritin trimerization motif) (from UniProt Q0QDZ0 1-1176) (domain or fragment)” had a stoichiometry N in test [2] of 3.
